Source: US20040023858A1, “Antifungal combination therapy” (priority 2000, published 2004)

System: Candida albicans FP633
Assay: Survival of neutropenic mice with disseminated candidiasis (G-CSF and Test Compound, alone and combined)
Type: in vivo, ICR mice
Details: C. albicans, day 6 after infection
Description: Disseminated candidiasis were induced in ICR mice by the intravenous inoculation of 0.2 ml of cell suspension of Candida albicans FP633 via their lateral tail veins. Cyclophosphamide was administered intraperitoneally at 200 mg/kg 4 days before and 1 day after infection. G-CSF was administered intraperitoneally once daily for 5 days starting at 3 days before infection. Test Compound was administered once daily for 4 days starting at 1 hour after infection by intravenous injection. The survival rate (%) was calculated at 6 days after infection.
1) Survival rate of neutropenic mice infected with C. albicans on day 6 after infection

Molecule | Survival rate (Test Compound 0.2 mg/kg i.v. once daily for 4 days, G-CSF 0 μg/kg, cyclophosphamide-treated neutropenic ICR mice) [%] | Survival rate (G-CSF 2.5 μg/kg i.p. once daily for 5 days, Test Compound 0 mg/kg, neutropenic ICR mice) [%] | Survival rate (G-CSF 5 μg/kg i.p. once daily for 5 days, Test Compound 0 mg/kg, neutropenic ICR mice) [%] | Survival rate (G-CSF 10 μg/kg i.p. once daily for 5 days, Test Compound 0 mg/kg, neutropenic ICR mice) [%]
CCCCCOc1ccc(-c2cc(-c3ccc(C(=O)NC4CC(O)C(O)NC(=O)C5C(O)C(C)CN5C(=O)C(C(O)CC(N)=O)NC(=O)C(C(O)C(O)c5ccc(O)c(OS(=O)(=O)[O-])c5)NC(=O)C5CC(O)CN5C(=O)C(C(C)O)NC4=O)cc3)no2)cc1.[Na+] (stereo not shown) [Test Compound] | 25 |  |  | 
G-CSF: granulocyte colony stimulating factor, stimulates the production of white blood cells (protein, UniProt P09919 31-207, looked up) Granulocyte …: TPLGPASSLPQSFLLKCLEQVRKIQGDGAALQEKLVSECATYKLCHPEELVLLGHSLGIPWAPLSSCPSQALQLAGCLSQLHSGLFLYQGLLQALEGISPELGPTLDTLQLDVADFATTIWQQMEELGMAPALQPTQGAMPAFASAFQRRAGGVLVASHLQSFLEVSYRVLRHLAQP |  | 0 | 25 | 50
